Measurements taken from patent US6133013A, “Truncated aspartase enzyme derivatives and uses thereof” (The University of Akron, priority 1999, dated 2000).

Substrate: N[C@@H](CC(=O)O)C(=O)O
Experiment: Spectrophotometric aspartase assay, deamination of L-aspartic acid to fumarate (240 nm)
Assay type: biochemical, Escherichia coli
Conditions: 30 mM Hepes pH 7.0, 10 mM magnesium acetate, 30° C.
Protocol: Catalytic activity was determined spectrophotometrically by measuring the formation of fumarate at 240 nm (E240 =2.53 mM^-1 cm^-1) produced by the enzyme-catalyzed deamination of aspartic acid. A standard assay mix contained 30 mM Hepes buffer, pH 7.0, 10 mM magnesium acetate, and varying concentrations of L-aspartic acid at 30° C.

B1: E. coli aspartase (L-aspartate ammonia-lyase, E.C. 4.3.1.1), wild-type, SEQ ID NO: 1 (Escherichia coli K-12) (protein)
chain: MSNNIRIEEDLLGTREVPADAYYGVHTLRAIENFYISNNKISDIPEFVRGMVMVKKAAAMANKELQTIPKSVANAIIAACDEVLNNGKCMDQFPVDVYQGGAGTSVNMNTNEVLANIGLELMGHQKGEYQYLNPNDHVNKCQSTNDAYPTGFRIAVYSSLIKLVDAINQLREGFERKAVEFQDILKMGRTQLQDAVPMTLGQEFRAFSILLKEEVKNIQRTAELLLEVNLGATAIGTGLNTPKEYSPLAVKKLAEVTGFPCVPAEDLIEATSDCGAYVMVHGALKRLAVKMSKICNDLRLLSSGPRAGLNEINLPELQAGSSIMPAKVNPVVPEVVNQVCFKVIGNDTTVTMAAEAGQLQLNVMEPVIGQAMFESVHILTNACYNLLEKCINGITANKEVCEGYVYNSIGIVTYLNPFIGHHNGDIVGKICAETGKSVREVVLERGLLTEAELDDIFSVQNLMHPAYKAKRYTDESEQ
notes: made in house; host or cells: E. coli overproducing strain (aspA in pTZ18R)
other: wild-type
  Km: 1.8 mM

B2: E. coli aspartase truncated variant D474stop, residues 1-473 of SEQ ID NO: 1 (Escherichia coli K-12) (protein)
chain: MSNNIRIEEDLLGTREVPADAYYGVHTLRAIENFYISNNKISDIPEFVRGMVMVKKAAAMANKELQTIPKSVANAIIAACDEVLNNGKCMDQFPVDVYQGGAGTSVNMNTNEVLANIGLELMGHQKGEYQYLNPNDHVNKCQSTNDAYPTGFRIAVYSSLIKLVDAINQLREGFERKAVEFQDILKMGRTQLQDAVPMTLGQEFRAFSILLKEEVKNIQRTAELLLEVNLGATAIGTGLNTPKEYSPLAVKKLAEVTGFPCVPAEDLIEATSDCGAYVMVHGALKRLAVKMSKICNDLRLLSSGPRAGLNEINLPELQAGSSIMPAKVNPVVPEVVNQVCFKVIGNDTTVTMAAEAGQLQLNVMEPVIGQAMFESVHILTNACYNLLEKCINGITANKEVCEGYVYNSIGIVTYLNPFIGHHNGDIVGKICAETGKSVREVVLERGLLTEAELDDIFSVQNLMHPAYKAKRYT
notes: made in house; host or cells: E. coli overproducing strain
other: D474stop
  Km: 2.8 mM
  kcat: 0.712 ± 0.127 s⁻¹
  kcat/Km: 255 M⁻¹ s⁻¹

B3: E. coli aspartase truncated variant Y472stop, residues 1-471 of SEQ ID NO: 1 (Escherichia coli K-12) (protein)
chain: MSNNIRIEEDLLGTREVPADAYYGVHTLRAIENFYISNNKISDIPEFVRGMVMVKKAAAMANKELQTIPKSVANAIIAACDEVLNNGKCMDQFPVDVYQGGAGTSVNMNTNEVLANIGLELMGHQKGEYQYLNPNDHVNKCQSTNDAYPTGFRIAVYSSLIKLVDAINQLREGFERKAVEFQDILKMGRTQLQDAVPMTLGQEFRAFSILLKEEVKNIQRTAELLLEVNLGATAIGTGLNTPKEYSPLAVKKLAEVTGFPCVPAEDLIEATSDCGAYVMVHGALKRLAVKMSKICNDLRLLSSGPRAGLNEINLPELQAGSSIMPAKVNPVVPEVVNQVCFKVIGNDTTVTMAAEAGQLQLNVMEPVIGQAMFESVHILTNACYNLLEKCINGITANKEVCEGYVYNSIGIVTYLNPFIGHHNGDIVGKICAETGKSVREVVLERGLLTEAELDDIFSVQNLMHPAYKAKR
notes: as for B2
other: Y472stop
  Km: 3.3 mM
  kcat: 1.62 ± 0.102 s⁻¹
  kcat/Km: 492 M⁻¹ s⁻¹

B4: E. coli aspartase truncated variant R471stop, residues 1-470 of SEQ ID NO: 1 (Escherichia coli K-12) (protein)
chain: MSNNIRIEEDLLGTREVPADAYYGVHTLRAIENFYISNNKISDIPEFVRGMVMVKKAAAMANKELQTIPKSVANAIIAACDEVLNNGKCMDQFPVDVYQGGAGTSVNMNTNEVLANIGLELMGHQKGEYQYLNPNDHVNKCQSTNDAYPTGFRIAVYSSLIKLVDAINQLREGFERKAVEFQDILKMGRTQLQDAVPMTLGQEFRAFSILLKEEVKNIQRTAELLLEVNLGATAIGTGLNTPKEYSPLAVKKLAEVTGFPCVPAEDLIEATSDCGAYVMVHGALKRLAVKMSKICNDLRLLSSGPRAGLNEINLPELQAGSSIMPAKVNPVVPEVVNQVCFKVIGNDTTVTMAAEAGQLQLNVMEPVIGQAMFESVHILTNACYNLLEKCINGITANKEVCEGYVYNSIGIVTYLNPFIGHHNGDIVGKICAETGKSVREVVLERGLLTEAELDDIFSVQNLMHPAYKAK
notes: as for B2
other: R471stop
  Km: 4.5 mM
  kcat: 1.18 ± 0.0483 s⁻¹
  kcat/Km: 262 M⁻¹ s⁻¹

B5: E. coli aspartase truncated variant A469stop, residues 1-468 of SEQ ID NO: 1 (Escherichia coli K-12) (protein)
chain: MSNNIRIEEDLLGTREVPADAYYGVHTLRAIENFYISNNKISDIPEFVRGMVMVKKAAAMANKELQTIPKSVANAIIAACDEVLNNGKCMDQFPVDVYQGGAGTSVNMNTNEVLANIGLELMGHQKGEYQYLNPNDHVNKCQSTNDAYPTGFRIAVYSSLIKLVDAINQLREGFERKAVEFQDILKMGRTQLQDAVPMTLGQEFRAFSILLKEEVKNIQRTAELLLEVNLGATAIGTGLNTPKEYSPLAVKKLAEVTGFPCVPAEDLIEATSDCGAYVMVHGALKRLAVKMSKICNDLRLLSSGPRAGLNEINLPELQAGSSIMPAKVNPVVPEVVNQVCFKVIGNDTTVTMAAEAGQLQLNVMEPVIGQAMFESVHILTNACYNLLEKCINGITANKEVCEGYVYNSIGIVTYLNPFIGHHNGDIVGKICAETGKSVREVVLERGLLTEAELDDIFSVQNLMHPAYK
notes: as for B2
other: A469stop
  Km: 10.2 mM
  kcat: 0.66 ± 0.0167 s⁻¹
  kcat/Km: 65 M⁻¹ s⁻¹

B6: E. coli aspartase truncated variant Y467stop (stop codon at position 467) (Escherichia coli K-12; E32V) (protein)
chain: MSNNIRIEEDLLGTREVPADAYYGVHTLRAIVNFYISNNKISDIPEFVRGMVMVKKAAAMANKELQTIPKSVANAIIAACDEVLNNGKCMDQFPVDVYQGGAGTSVNMNTNEVLANIGLELMGHQKGEYQYLNPNDHVNKCQSTNDAYPTGFRIAVYSSLIKLVDAINQLREGFERKAVEFQDILKMGRTQLQDAVPMTLGQEFRAFSILLKEEVKNIQRTAELLLEVNLGATAIGTGLNTPKEYSPLAVKKLAEVTGFPCVPAEDLIEATSDCGAYVMVHGALKRLAVKMSKICNDLRLLSSGPRAGLNEINLPELQAGSSIMPAKVNPVVPEVVNQVCFKVIGNDTTVTMAAEAGQLQLNVMEPVIGQAMFESVHILTNACYNLLEKCINGITANKEVCEGYVYNSIGIVTYLNPFIGHHNGDIVGKICAETGKSVREVVLERGLLTEAELDDIFSVQNLMHPA
notes: made in house; host or cells: E. coli (aspA in pTZ18R)
other: Y467stop
  Km: 31 mM
  kcat: 0.0417 ± 0.013 s⁻¹
  kcat/Km: 1.33 M⁻¹ s⁻¹
